Reference: PMC9697189, “Peptide-Based [^68Ga]Ga Labeled PET Tracer for Tumor Imaging by Targeting Tumor-Associated Macrophages” (Pharmaceutics, 2022)
Peptide text beside a SMILES is read from it. * marks the point of attachment. DOTA = O=C(O)CN1CCN(CC(=O)O)CCN(CC(=O)*)CCN(CC(=O)O)CC1

What was measured:
in vitro = in vitro ADME, bovine; conditions: serum
Experimental: DOTA-M2pep (80 μg) was dissolved in 200 μL of purified water in a small vial. About 200 μL of [^68Ga]GaCl3 (44.4–59.2 MBq) was added, and 1 M sodium acetate buffer was used to adjust the final pH to 4.0–4.5. After incubation in a water bath at 55 °C for 30 min, the radiolabeling reaction was completed, and the mixture was collected. Radio-HPLC was performed to confirm the radiochemical purity of [^68Ga]Ga-DOTA-M2pep. The mobile phase was composed of solvent A, acetonitrile (ACN) solution, and solvent B, 0.1% trifluoroacetic acid (TFA) in water. The gradient solvent system was set up as follows: 0–8 min, 70% A and 30% B; 8–15 min, 100% A and 0% B; 15–17 min, 5% A and 95% B; 17–20 min, 95% A and 5% B at a flow rate of 1.0 mL/min. To investigate the in vitro stability, 3.7 MBq [^68Ga]Ga-DOTA-M2pep (100 μL) was incubated in the same volume of phosphate-buffered saline (PBS, pH = 7.4) or bovine serum at 37 °C, respectively. The radiochemical purity was assessed at 15, 30, 60, and 120 min. All experiments were performed in triplicate.

in vivo [1] = test: in vivo; set-up: species or system C57B/L6 mice; conditions: male, C57B/L6, mouse, iv, 1.11 MBq, total radioactivity
Experimental: The male C57B/L6 mice (6–8 weeks old, 20–25 g) were purchased from HFK bioscience (Beijing, China) and divided randomly into the experimental and blocking groups. All the studies were approved by the experimental animal ethics committee of Sichuan University and were conducted in compliance with the institutional guidelines for the care and use of laboratory animals. The C57B/L6 mice were injected subcutaneously with 5 × 10^6 B16-F10 cells in 100 µL of PBS into the forelimb of the animals under anesthesia with isoflurane. After 7–10 days, the B16F10 tumor-bearing mice were established and prepared for imaging and biodistribution when xenografts grew to 500–1000 mm^3. The B16F10 tumor-bearing mice (n = 3) were intravenously administered [^68Ga]Ga-DOTA-M2pep (1.11 MBq) for biodistribution studies. At 5, 15, 30, 60 min, and 2 h post-injection, mice were euthanized, and the organs of interest, including the blood, heart, lungs, liver, kidneys, spleen, stomach, intestine, muscle, bone, brain, and tumor, were harvested. The samples were then weighed and counted by an automatic γ-counter (PerkinElmer Wizard, Shelton, CT, USA). In the blocking group, the B16F10 tumor-bearing mice (n = 3) were pretreated with free M2pep (10 mM) in 100 μL saline by intravenous injection 60 min before administration of [^68Ga]Ga-DOTA-M2pep (1.11 MBq). The organs of interest were harvested, weighed, and counted as described above at 60 min post-injection. The percentage of tracer uptake was calculated as the percentage of injected dose per gram of tissue (%ID/g), which was decay-corrected to the start time of counting. The percentage reflected the activity associated with tissues per organ weight per actual injected dose.

[2] = test system: B16F10 tumor-bearing mice; test: in vivo; set-up: species or system C57B/L6 mice; conditions: mouse
Experimental: (§1) The male C57B/L6 mice (6–8 weeks old, 20–25 g) were purchased from HFK bioscience (Beijing, China) and divided randomly into the experimental and blocking groups. All the studies were approved by the experimental animal ethics committee of Sichuan University and were conducted in compliance with the institutional guidelines for the care and use of laboratory animals. The C57B/L6 mice were injected subcutaneously with 5 × 10^6 B16-F10 cells in 100 µL of PBS into the forelimb of the animals under anesthesia with isoflurane. After 7–10 days, the B16F10 tumor-bearing mice were established and prepared for imaging and biodistribution when xenografts grew to 500–1000 mm^3.
(§2) PET scans were performed using a micro-PET/CT scanner (Inviscan, IRIS, Paris, France). [^68Ga]Ga-DOTA-M2pep (3.7 MBq) was administered to the B16F10 tumor-bearing mice (n = 4) via the tail vein. At 30 min, 1 h, and 2 h post-injection, the tumor-bearing mice were imaged with the micro-PET/CT scan under anesthesia with 2% isoflurane. Each scan was completed within 15 min. For the blocking scans, B16F10 tumor-bearing mice (n = 3) were pretreated with free M2pep (10 mM) in 100 μL saline by intravenous injection 60 min before administration of [^68Ga]Ga-DOTA-M2pep (3.7 MBq). Micro-PET/CT scans were acquired at 60 min post-injection as described above. The obtained images were reconstructed using three-dimensional ordered-subset expectation maximization (3D OSEM) and then processed using Osirix MD. Regions of interest (ROIs) were manually drawn over the tumor regions and organs, and quantitative analyses were calculated. Immunofluorescence staining was performed 24 h after micro-PET scan to determine the [^68Ga]Ga-DOTA-M2pep targeting efficiency. The harvested tumors were fixed with paraformaldehyde for 24 h, then were frozen and sectioned at 10 μm, followed by treatment with Fitc-M2pep, and staining with M2 TAMs marker PE-CD206 antibody and DAPI.

in vivo [3] = test: in vivo; set-up: species or system C57B/L6 mice; conditions: male, C57B/L6, mouse, iv, 3.7 MBq, total radioactivity
Experimental: as §1, §2

Q: For CC(C)[C@H](NC(=O)CNC(=O)[C@H](Cc1c[nH]c2ccccc12)NC(=O)[C@@H]1CCCN1C(=O)[C@H](CC(=O)O)NC(=O)[C@H](CCC(N)=O)NC(=O)[C@H](CCC(=O)O)NC(=O)[C@H](Cc1ccc(O)cc1)NC(=O)CN1CCN(CC(=O)O)CCN(CC(=O)O)CCN(CC(=O)O)CC1)C(=O)N[C@@H](CCCCN)C(=O)N[C@@H](Cc1c[nH]c2ccccc12)C(=O)N[C@@H](Cc1c[nH]c2ccccc12)C(=O)N[C@@H](Cc1ccc(O)cc1)C(=O)O [[^68Ga]Ga-DOTA-M2pep, metal not drawn] ({DOTA}-YEQDPWGVKWWY-OH), which remaining at 2 h, 18.5 MBq/mL (in vitro) is on record?
A: The remaining at 2 h, 18.5 MBq/mL was greater than 85%.

Q: And the tissue uptake at 5 min (in vivo [1]; blood uptake)?
A: The tissue uptake at 5 min was 10.5 ± 2.2 %ID/g.

Q: And the tissue uptake at 1 h (in vivo [1]; blood uptake)?
A: Its tissue uptake at 1 h is 1.84 ± 0.02 %ID/g.

Q: And the tissue uptake at 5 min (in vivo [1]; kidney uptake (peak))?
A: The tissue uptake at 5 min was 12.7 ± 3.71 %ID/g.

Q: What about the tissue uptake at 1 h (in vivo [1]; liver uptake) of the same compound?
A: The tissue uptake at 1 h was 0.96 ± 0.02 %ID/g.

Q: And the tissue uptake at 1 h (in vivo [1]; tumor uptake)?
A: The tissue uptake at 1 h was 3.35 ± 0.34 %ID/g.

Q: And the tissue uptake at 2 h (in vivo [1]; tumor uptake)?
A: The tissue uptake at 2 h was 3.12 ± 0.27 %ID/g.

Q: What about the “tumor/muscle ratio (PET)” value [2] of the same compound?
A: Its value is 3.35 ± 0.27.

Q: What about the tissue to tissue ratio at 0.5 h (in vivo [3]) of the same compound?
A: Its tissue to tissue ratio at 0.5 h is 3.19 ± 0.22.

Q: And the tissue to tissue ratio at 2 h (in vivo [3])?
A: Its tissue to tissue ratio at 2 h is 3.12 ± 0.83.

Q: And the tissue uptake at 0.5 h (in vivo [3])?
A: Its tissue uptake at 0.5 h is 2.72 ± 0.07 %ID/g.

Q: What about the tissue uptake at 1 h (in vivo [3]) of the same compound?
A: Its tissue uptake at 1 h is 2.93 ± 0.2 %ID/g.

Q: And the tissue uptake at 2 h (in vivo [3])?
A: Its tissue uptake at 2 h is 2.47 ± 0.13 %ID/g.
